Data taken from publication PMC2756588.

T1: Abp1, P15891
T1 sequence (P15891 535-592, looked up): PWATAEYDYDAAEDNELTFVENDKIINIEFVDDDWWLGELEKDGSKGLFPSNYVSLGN

T2: Bbc1, P47068
T2 sequence (P47068 1-78, looked up): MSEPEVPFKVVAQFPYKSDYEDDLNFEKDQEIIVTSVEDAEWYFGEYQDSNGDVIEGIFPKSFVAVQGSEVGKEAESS

T3: Boi1, P38041
T3 sequence (P38041 1-86, looked up): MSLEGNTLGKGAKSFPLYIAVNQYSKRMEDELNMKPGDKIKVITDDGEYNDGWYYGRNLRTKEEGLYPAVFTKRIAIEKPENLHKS

T4: Boi2, P39969
T4 sequence (P39969 32-116, looked up): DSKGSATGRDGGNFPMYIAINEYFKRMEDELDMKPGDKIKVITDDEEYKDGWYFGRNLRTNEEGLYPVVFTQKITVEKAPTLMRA

T5: Bud14, P27637
T5 sequence (P27637 247-328, looked up): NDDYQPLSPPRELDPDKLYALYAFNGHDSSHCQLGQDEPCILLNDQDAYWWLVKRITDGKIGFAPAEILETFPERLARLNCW

T6: Bzz1-1, P38822
T6 sequence (P38822 478-572, looked up): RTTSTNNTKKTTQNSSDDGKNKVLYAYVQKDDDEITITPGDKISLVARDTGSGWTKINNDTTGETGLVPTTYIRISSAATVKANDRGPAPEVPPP

T7: Bzz1-2, P38822
T7 sequence (P38822 568-633, looked up): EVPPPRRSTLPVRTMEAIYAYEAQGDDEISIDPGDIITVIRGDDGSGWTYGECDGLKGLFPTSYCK

T8: Cdc25, P04821
T8 sequence (P04821 50-136, looked up): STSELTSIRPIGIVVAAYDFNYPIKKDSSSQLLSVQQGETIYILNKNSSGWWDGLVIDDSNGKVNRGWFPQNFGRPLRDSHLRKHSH

T9: Cyk3, Q07533
T9 sequence (Q07533 1-83, looked up): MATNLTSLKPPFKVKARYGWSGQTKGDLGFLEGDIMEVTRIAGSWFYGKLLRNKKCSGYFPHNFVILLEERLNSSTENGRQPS

T10: Fus1, P11710
T10 sequence (P11710 432-512, looked up): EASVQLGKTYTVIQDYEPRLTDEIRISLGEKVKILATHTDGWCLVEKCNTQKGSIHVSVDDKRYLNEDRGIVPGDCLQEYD

T11: Hof1, Q05080
T11 sequence (Q05080 590-669, looked up): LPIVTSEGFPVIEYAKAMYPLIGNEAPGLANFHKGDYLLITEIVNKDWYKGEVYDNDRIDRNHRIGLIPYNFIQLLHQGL

T12: Hse1, P38753
T12 sequence (P38753 208-285, looked up): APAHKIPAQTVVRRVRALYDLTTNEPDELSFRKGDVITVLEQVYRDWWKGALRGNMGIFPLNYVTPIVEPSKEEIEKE

T13: Lsb1, P53281
T13 sequence (P53281 45-122, looked up): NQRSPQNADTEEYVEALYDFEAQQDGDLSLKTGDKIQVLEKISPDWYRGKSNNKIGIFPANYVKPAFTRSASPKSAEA

T14: Lsb3, P43603
T14 sequence (P43603 385-451, looked up): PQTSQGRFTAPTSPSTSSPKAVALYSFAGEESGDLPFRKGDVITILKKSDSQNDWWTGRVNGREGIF

T15: Lsb4, P32793
T15 sequence (P32793 402-468, looked up): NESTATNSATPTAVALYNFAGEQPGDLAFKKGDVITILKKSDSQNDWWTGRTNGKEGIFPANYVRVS

T16: Myo5, Q04439
T16 sequence (Q04439 1072-1160, looked up): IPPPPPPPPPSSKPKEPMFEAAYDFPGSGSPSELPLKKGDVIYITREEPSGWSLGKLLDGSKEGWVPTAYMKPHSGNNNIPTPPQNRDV

T17: Nbp2, Q12163
T17 sequence (Q12163 103-180, looked up): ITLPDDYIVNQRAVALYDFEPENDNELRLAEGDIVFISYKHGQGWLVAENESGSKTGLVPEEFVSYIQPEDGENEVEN

T18: Pex13, P80667
T18 sequence (P80667 295-386, looked up): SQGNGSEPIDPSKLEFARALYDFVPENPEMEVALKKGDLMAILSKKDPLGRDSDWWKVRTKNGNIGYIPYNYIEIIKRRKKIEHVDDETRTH

T19: Pin3, Q06449
T19 sequence (Q06449 53-122, looked up): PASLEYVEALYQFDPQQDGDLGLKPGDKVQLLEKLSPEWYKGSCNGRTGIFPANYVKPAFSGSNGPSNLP

T20: Sla1-2, P32790
T20 sequence (P32790 60-140, looked up): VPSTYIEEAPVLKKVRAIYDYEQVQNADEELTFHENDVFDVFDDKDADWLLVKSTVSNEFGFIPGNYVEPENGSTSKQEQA

T21: Sla1-3, P32790
T21 sequence (P32790 344-424, looked up): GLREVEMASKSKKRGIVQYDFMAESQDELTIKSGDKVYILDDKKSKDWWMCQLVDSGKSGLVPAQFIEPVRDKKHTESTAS

B1: unnamed (peptide)
chain: NLDRSKISLPDFDDE
B2: unnamed (peptide)
chain: GAGERPRLVPRPINV
B3: unnamed (peptide)
chain: DAPASKPSVPPRNYF

What follows are binders tested against T1, Abp1, P15891 (assay: SPOT array). Details: median of control spots 935.

SPOT intensity	Binder
23	B1
9	B2
17	B3

The binders below were run against T2, Bbc1, P47068 (assay: SPOT array). Details: median of control spots 796.

SPOT intensity	Binder
15	B1
30	B2
6	B3

What follows are binders tested against Bem1-1, P29366 (assay: SPOT array). Details: median of control spots 4282.
Sequence of Bem1-1, P29366 (P29366 55-141): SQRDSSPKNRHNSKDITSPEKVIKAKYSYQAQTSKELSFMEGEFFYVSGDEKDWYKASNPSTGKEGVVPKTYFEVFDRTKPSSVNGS

SPOT intensity	Binder
3	B1
3	B2
0	B3

Each binder was assayed against Bem1-2, P29366 (assay: SPOT array). Details: median of control spots 4347.
Sequence of Bem1-2, P29366 (P29366 139-227): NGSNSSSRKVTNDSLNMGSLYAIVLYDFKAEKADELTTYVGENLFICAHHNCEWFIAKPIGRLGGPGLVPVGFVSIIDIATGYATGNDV

SPOT intensity	Binder
0	B1
1	B2
0	B3

These binders were tested against T3, Boi1, P38041 (assay: SPOT array). Details: median of control spots 1162.

SPOT intensity	Binder
7	B1
3	B2
0	B3

These binders were tested against T4, Boi2, P39969 (assay: SPOT array). Details: median of control spots 1161.

SPOT intensity	Binder
2	B1
0	B2
0	B3

Each binder was assayed against T5, Bud14, P27637 (assay: SPOT array). Details: median of control spots 956.

SPOT intensity	Binder
20	B1
0	B2
0	B3

The binders below were run against T6, Bzz1-1, P38822 (assay: SPOT array). Details: median of control spots 4446.

SPOT intensity	Binder
3	B1
1	B2
0	B3

The binders below were run against T7, Bzz1-2, P38822 (assay: SPOT array). Details: median of control spots 4538.

SPOT intensity	Binder
3	B1
0	B2
0	B3

The binders below were run against T8, Cdc25, P04821 (assay: SPOT array). Details: median of control spots 969.

SPOT intensity	Binder
35	B1
18	B2
0	B3

Each binder was assayed against T9, Cyk3, Q07533 (assay: SPOT array). Details: median of control spots 1451.

SPOT intensity	Binder
4	B1
3	B2
1	B3

What follows are binders tested against T10, Fus1, P11710 (assay: SPOT array). Details: median of control spots 1200.

SPOT intensity	Binder
4	B1
0	B2
0	B3

Each binder was assayed against GST (assay: SPOT array). Details: median of control spots 978.

SPOT intensity	Binder
36	B1
0	B2
0	B3

The binders below were run against T11, Hof1, Q05080 (assay: SPOT array). Details: median of control spots 4086.

SPOT intensity	Binder
8	B1
11	B2
0	B3

Each binder was assayed against T12, Hse1, P38753 (assay: SPOT array). Details: median of control spots 1727.

SPOT intensity	Binder
3	B1
7	B2
0	B3

The binders below were run against T13, Lsb1, P53281 (assay: SPOT array). Details: median of control spots 388.

SPOT intensity	Binder
84	B1
18	B2
1310	B3

What follows are binders tested against T14, Lsb3, P43603 (assay: SPOT array). Details: median of control spots 406.

SPOT intensity	Binder
0	B1
60	B2
125	B3

These binders were tested against T15, Lsb4, P32793 (assay: SPOT array). Details: median of control spots 397.

SPOT intensity	Binder
5	B1
105	B2
231	B3

Each binder was assayed against Myo3, P36006 (assay: SPOT array). Details: median of control spots 468.

SPOT intensity	Binder
1	B1
0	B2
0	B3

Each binder was assayed against T16, Myo5, Q04439 (assay: SPOT array). Details: median of control spots 471.

SPOT intensity	Binder
0	B1
1	B2
0	B3

The binders below were run against T17, Nbp2, Q12163 (assay: SPOT array). Details: median of control spots 357.

SPOT intensity	Binder
6	B1
2	B2
2	B3

What follows are binders tested against T18, Pex13, P80667 (assay: SPOT array). Details: median of control spots 1341.

SPOT intensity	Binder
3	B1
24	B2
91	B3

Each binder was assayed against T19, Pin3, Q06449 (assay: SPOT array). Details: median of control spots 2171.

SPOT intensity	Binder
8	B1
5	B2
23	B3

What follows are binders tested against Rvs167, P39743 (assay: SPOT array). Details: median of control spots 2707.
Sequence of Rvs167, P39743 (P39743 419-482): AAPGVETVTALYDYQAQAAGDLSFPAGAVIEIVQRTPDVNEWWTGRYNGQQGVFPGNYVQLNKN

SPOT intensity	Binder
6	B1
4	B2
58	B3

These binders were tested against Sho1, P40073 (assay: SPOT array). Details: median of control spots 1148.
Sequence of Sho1, P40073 (P40073 287-367): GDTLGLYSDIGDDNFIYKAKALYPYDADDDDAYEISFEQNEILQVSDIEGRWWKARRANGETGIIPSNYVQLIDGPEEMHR

SPOT intensity	Binder
16	B1
4	B2
0	B3

These binders were tested against T20, Sla1-2, P32790 (assay: SPOT array). Details: median of control spots 712.

SPOT intensity	Binder
1	B1
1	B2
0	B3

The binders below were run against T21, Sla1-3, P32790 (assay: SPOT array). Details: median of control spots 5475.

SPOT intensity	Binder
2	B1
0	B2
12	B3
